In the Human Domainome abundance scans (Beltran et al. 2025):

B1: Ankyrin repeat and SOCS box protein 14, residues 532 to 572; numbered along this chain, A6NK59 (parent)
chain: RSLKHLCRLKIRKCMGRLHLRCPVFMSFLPLPNRLKAYVLY

Variants of: B1
Test: abundance fitness (aPCA) (normalised: wild type 0, dead -1); higher = more abundant; growth selection in yeast, the domain comes from the species named
Details: Homo sapiens

Abundance fitness, by site and new letter:
P23: N -0.049, Y 0.283, D 0.315, V 0.384, T 0.336, F 0.078, R 0.357, H -0.306, G 0.198, S 0.273, M 0.334, A 0.321, L 0.494, W 0.321, C 0.28, E 0.36, Q 0.407, K 0.524
L29: V -0.353, T -0.455, K -0.299, D -0.435, S -0.258, P -0.342, G -0.349, F -0.473, I -0.037, M -0.618, Y -0.53, E -0.672, A -0.356
P30: F -0.182, S 0.424, C 0.197, G 0.337, A 0.417, M 0.26, D 0.325, E 0.4, R 0.485, I -0.217, L 0.151
F25: P 0.074, T -0.243, S -0.095, L 0.19, C -0.449, R -0.116, I 0.316, H -0.447, G -0.048, Q -0.123, K 0.089, M -0.042, D 0.197, V 0.033, A -0.178
L20: V -0.233, W -0.285, M -0.098, Y -0.655, R -0.348, T 0.069, K 0.101, S -0.093, Q -0.087
M26: W 0.118, A -0.08, H 0.113, K -0.026, L 0.078, Y -0.207, C -0.013, T -0.002, S 0.018, R -0.047, G 0.072, E 0.194, Q -0.154, I -0.038, P -0.002, D -0.004
S27: V -0.709, E -0.006, C -0.536, T -0.247, Y -1.05, M -0.892, W -0.156, R 0.042, K 0.078, G -0.075, L -1.09, Q -0.085, N 0.019, D -0.054, P -0.386, A -0.059
F28: W 0.177, E 0.27, I 0.001, L 0.128, S -0.05, Q 0.066, P -0.322, K 0.221, H 0.199, C -0.198, N 0.005, Y -0.01, A -0.228, V -0.156, D -0.056, M -0.127, R 0.104, T -0.237
C22: G -0.339, P -0.086, W 0.218, M 0.162, R -0.282, V 0.064, N -0.719, I 0.178, Y -0.139, E -0.455, K -0.519, L 0.243, Q -0.521, H -0.052, S -0.247, F 0.057, D -1.02
V24: D 0.472, K 0.449, S 0.308, C 0.251, W 0.233, M -0.217, L -0.081, Y -0.166, P 0.137, G 0.319, F 0.469, N 0.316, T 0.176, R 0.352, Q 0.242, E 0.347
R21: P -0.322, H -0.295, Q -0.623, G -0.061, F -0.102, V 0.009, N 0.096, S -0.147, W 0.275, L 0.196, I 0.207, A -0.076, M 0.129, E -0.508, T -0.178, D -0.143, C -0.253, K -0.029
